Results as given in patent US20260098102A1 (NATIONAL UNIVERSITY CORPORATION KOBE UNIVERSITY, published 2026).

T1: mouse SIRPA BALB/c (mouse (BALB/c), UniProt P97797 35-513)
T1 construct: FLAG-tagged (pFLAG V5-DEST), on 293α cells
T1 chain: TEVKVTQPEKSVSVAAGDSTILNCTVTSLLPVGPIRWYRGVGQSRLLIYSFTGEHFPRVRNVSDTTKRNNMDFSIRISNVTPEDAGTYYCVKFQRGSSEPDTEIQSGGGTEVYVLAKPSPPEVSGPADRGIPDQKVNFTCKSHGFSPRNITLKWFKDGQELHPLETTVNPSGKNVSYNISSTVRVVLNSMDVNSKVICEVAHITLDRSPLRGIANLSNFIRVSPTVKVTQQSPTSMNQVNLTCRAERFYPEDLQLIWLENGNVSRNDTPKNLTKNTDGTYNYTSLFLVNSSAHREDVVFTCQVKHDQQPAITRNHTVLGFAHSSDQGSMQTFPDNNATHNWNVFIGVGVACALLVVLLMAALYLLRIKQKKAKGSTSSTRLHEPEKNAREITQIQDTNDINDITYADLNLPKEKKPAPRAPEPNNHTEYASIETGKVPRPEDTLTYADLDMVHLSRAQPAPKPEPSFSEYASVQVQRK

T2: mouse SIRPA_NOD (mouse (NOD), UniProt P97797 32-513)
T2 construct: FLAG-tagged (pFLAG V5-DEST), on 293α cells; also called NOD SCID
T2 chain: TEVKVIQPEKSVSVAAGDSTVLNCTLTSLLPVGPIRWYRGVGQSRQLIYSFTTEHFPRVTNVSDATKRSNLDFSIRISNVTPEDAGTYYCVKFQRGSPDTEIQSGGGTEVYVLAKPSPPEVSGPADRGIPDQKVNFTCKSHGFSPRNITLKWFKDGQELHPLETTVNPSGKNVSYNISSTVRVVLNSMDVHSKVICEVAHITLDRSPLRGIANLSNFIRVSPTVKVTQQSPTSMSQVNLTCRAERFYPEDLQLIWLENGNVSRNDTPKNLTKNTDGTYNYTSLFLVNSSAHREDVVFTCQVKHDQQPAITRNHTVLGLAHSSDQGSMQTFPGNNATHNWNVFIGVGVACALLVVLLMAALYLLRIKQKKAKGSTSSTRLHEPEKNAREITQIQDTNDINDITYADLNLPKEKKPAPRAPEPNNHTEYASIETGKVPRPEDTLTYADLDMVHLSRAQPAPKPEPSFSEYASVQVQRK

T3: mouse SIRPA_C57BL/6 (mouse (C57BL/6), UniProt P97797 32-513)
T3 construct: FLAG-tagged (pFLAG V5-DEST), on 293α cells
T3 sequence: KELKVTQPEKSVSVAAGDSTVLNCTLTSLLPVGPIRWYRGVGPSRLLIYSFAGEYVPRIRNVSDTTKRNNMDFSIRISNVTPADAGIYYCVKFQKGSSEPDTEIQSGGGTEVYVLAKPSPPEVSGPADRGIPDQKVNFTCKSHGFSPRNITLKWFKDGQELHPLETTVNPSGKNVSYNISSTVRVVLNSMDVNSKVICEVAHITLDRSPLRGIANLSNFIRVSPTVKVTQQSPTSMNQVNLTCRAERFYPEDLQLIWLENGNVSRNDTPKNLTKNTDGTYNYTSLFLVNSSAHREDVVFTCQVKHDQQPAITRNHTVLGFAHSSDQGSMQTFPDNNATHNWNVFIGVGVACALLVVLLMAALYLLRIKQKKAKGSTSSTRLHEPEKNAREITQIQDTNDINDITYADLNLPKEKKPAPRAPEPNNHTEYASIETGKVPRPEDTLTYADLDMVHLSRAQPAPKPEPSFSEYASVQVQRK

T4: mouse SIRPA_129 (mouse (129), UniProt P97797 32-513)
T4 construct: FLAG-tagged (pFLAG V5-DEST), on 293α cells; also called 129sv
T4 chain: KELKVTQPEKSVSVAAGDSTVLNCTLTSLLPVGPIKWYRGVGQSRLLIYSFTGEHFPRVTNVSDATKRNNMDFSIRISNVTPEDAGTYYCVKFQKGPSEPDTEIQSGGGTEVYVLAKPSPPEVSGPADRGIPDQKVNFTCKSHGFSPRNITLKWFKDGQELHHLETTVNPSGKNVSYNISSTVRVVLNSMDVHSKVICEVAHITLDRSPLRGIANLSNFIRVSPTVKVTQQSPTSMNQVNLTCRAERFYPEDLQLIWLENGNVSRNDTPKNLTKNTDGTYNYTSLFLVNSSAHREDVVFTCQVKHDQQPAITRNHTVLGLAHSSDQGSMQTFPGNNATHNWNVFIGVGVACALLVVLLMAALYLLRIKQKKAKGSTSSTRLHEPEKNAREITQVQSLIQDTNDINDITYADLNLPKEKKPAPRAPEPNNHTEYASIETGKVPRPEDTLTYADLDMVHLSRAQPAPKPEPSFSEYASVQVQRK

B1: rat anti-human SIRPA monoclonal antibody D13 (antibody, V domains shown)
VH: EVQLVESGGGLVQPGRSLKLSCLASGFTFSDYGMIWVRQAPGKGLEWVASISSSSSYIYYADTVKGRFTISRENAKNTLFLHMTSLRSEDTALYYCARRYYGFNYPFDYWGQGVMVTVSS
VL: DTVLTQSPALAVSLGQRVTISCGASKSVRTYMHWYQQKSGQQPKLLIYSASNLEAGVPSRFSGSGSGTDFTLTIDPVEADDIANYYCQQSNEPPYTFGAGTKLELK
notes: Rat IgG1/kappa purified from hybridoma
B2: ADU-1805 (antibody, human IgG2, kappa, V domains shown)
VH: EVQLVQSGAEVVKPGASVKLSCKASGSTFTSYWMHWVKQAPGQGLEWIGAIYPVNSDTTYNQKFKGKATLTVDKSASTAYMELSSLRSEDTAVYYCTRSFYYSLDAAWFVYWGQGTLVTVSS
VL: DIQMTQSPSSLSASVGDRVTITCRASQDIGSRLNWLQQKPGKAPKRLIYATSSLDSGVPSRFSGSGSGTEFTLTISSLQPEDFATYYCLQYASSPFTFGGGTKVEIKR
notes: IgG2 heavy chain; also called ADU-1805_hG2 / ADU-1805_hK

Tests used:
mouse SIRPA BALB/c = target: T1, mouse SIRPA BALB/c; assay: cell-based ELISA, transfected 293α cells
Experimental: (§1) After the culture supernatant of 293α cells into which the pFLAG V5-DEST-monkey SIRPA or pFLAG V5-DEST-mouse SIRPA expression vector was introduced and the pFLAG V5-DEST-introduced 293α cells prepared in Example 1)-5-2 was removed, binding to monkey or mouse SIRPA was evaluated in the same manner as for the binding activity of human SIRPA.

mouse SIRPA_NOD = target: T2, mouse SIRPA_NOD; assay: cell-based ELISA, transfected 293α cells
Experimental: as §1

mouse SIRPA_C57BL/6 = target: T3, mouse SIRPA_C57BL/6; assay: cell-based ELISA, transfected 293α cells
Experimental: as §1

mouse SIRPA_129 = target: T4, mouse SIRPA_129; assay: cell-based ELISA, transfected 293α cells
Experimental: as §1

human SIRPB = target: T5, human SIRPB (human, UniProt O00241 30-398); assay: flow cytometry on CHO-K1 cells expressing FLAG-tagged human SIRPB; PE anti-human IgG; MFI standardized to secondary antibody alone
T5 construct: whole, on cells; FLAG-tagged (pFLAG V5-DEST), on CHO-K1 cells; also called SIRPβ1; signal regulatory protein β1
Experimental: SIRPβ1 (signal regulatory protein β1: the amino acid sequence thereof is published as RefSeq accession number NP_006056) and SIRPγ (signal regulatory protein γ: the amino acid sequence thereof is published as RefSeq accession number NP_061026) are molecules belonging to the SIRPA family. In the present invention, “SIRPα” may be referred to as “SIRPA,” “SIRPβ1” may be referred to as […] and “SIRPγ” may be referred to as “SIRPG.” CHO-K1 cells were prepared in a 10% FBS-containing Ham's F-12K medium at 3.3×10⁵ cells/mL and cultured overnight at 37° C. under a 5% CO₂ condition. pFLAG V5-DEST-human SIRPβ, pFLAG V5-DEST-human SIRPG, or pFLAG V5-DEST was introduced into the cells using Lipofectamine LTX (Invitrogen), and cells were cultured in a 10% FBS-containing Ham's F-12K medium at 37° C. under a 5% CO₂ condition for 24 hours. The obtained introduced cells were collected and seeded on a 96-well plate. After the culture supernatant was removed, 100 μL per well of various anti-human SIRPA antibodies or various control human IgG was added to each of various gene introduced cells at a final concentration of 0 to 10,000 ng/mL, and the mixture was allowed to stand at 4° C. for 25 minutes. After the mixture was centrifuged, the supernatant was removed, and cells were washed twice with 5% FBS-containing PBS. After the mixture was centrifuged, the supernatant was removed, 50 μL per well of a 1/400 diluted solution of PE Mouse anti-Human IgG antibody (BioLegend) was added, and the mixture was allowed to stand at 4° C. for 25 minutes. After the mixture was centrifuged, the supernatant was removed, and cells were washed twice with 5% FBS-containing PBS.
(§2) After the mixture was centrifuged, and the supernatant was removed, cells were suspended in 100 μL per well of 1× BD Stabilizing Fixative (Becton Dickinson), and the cell count was measured by flow cytometry (FACS Canto II: Becton Dickinson). For data analysis, FlowJo (TreeStar) was used. Cells were characterized by detecting forward scattered (FSC) light and side-scattered (SSC) light, and then the mean fluorescence intensity of PE was calculated. Binding of various antibodies to the family molecules was calculated by standardizing the fluorescence intensity using the mean fluorescence intensity of a sample in which the secondary antibody alone was allowed to react.

SIRPA_V2_IgV = target: T6, SIRPA_V2_IgV (human); assay: SPR Biacore T200, antibody captured on anti-human IgG (Fc), SIRPA_V2_IgV as analyte (0.25 to 16 nM), 1:1 model
T6 construct: Secreted recombinant protein; The crystal model held residues 33 to 143 of human SIRPA Variant 2
Experimental: (§3) The dissociation constants were measured by a capture method comprising capturing each antibody as a ligand to an Anti-Human IgG (Fc) antibody immobilized using Human Antibody Capture Kit (GE Healthcare Bioscience Corp.) and measuring an antigen as an analyte, using Biacore T200 (GE Healthcare Bioscience Corp.). HBS-EP+ (GE Healthcare Bioscience Corp.) was used as a running buffer, and CM5 (GE Healthcare Bioscience Corp.) was used as a sensor chip. Onto the chip, 2 μg/mL of various antibodies were added at 10 μL/min for 30 seconds, then a serially diluted solution (0.25 to 16 nM) of the human SIRPA protein as an antigen was added at a flow rate of 30 μL/min for 120 seconds, and subsequently the dissociation phase for 600 seconds was monitored. As a regenerant, 3 M magnesium chloride (GE Healthcare Bioscience Corp.) was added at a flow rate of 20 μL/min for 30 seconds. For data analysis, a binding rate constant (ka), a dissociation rate constant (kd), and a dissociation constant (KD; KD=kd/ka) were calculated using a 1:1 binding model.

human SIRPA_V2 protein = target: T7, human SIRPA_V2 protein (human, UniProt P78324 31-504); assay: blocking cell-based ELISA: peroxidase-labeled CD47-Fc (1 µg/mL) on 293α cells expressing SIRPA_V2
T7 construct: Expressed on 293α cells from pcDNA3.2 V5-DEST or pFLAG V5-DEST (FLAG-tagged) vectors; also called human SIRPA Variant 2; ECD variant (full-length, amino acids 1 to 504)
Experimental: (§4) After the culture supernatant of the human SIRPA_V1 or V2 expression vector-introduced 293 cells prepared in Example 9)-1 was removed, 50 μL per well of various anti-SIRPA antibodies or various control Human IgG diluted with 5% FBS-containing PBS to a final concentration of 0 to 10,000 ng/ml was added to each of pcDNA3.2 V5-DEST-SIRPA_V1 or V2-introduced 293α cells, immediately followed by addition of 50 µL per well of peroxidase-labeled CD47-Fc prepared with 5% FBS-containing PBS at 1 μg/mL, and the mixture was allowed to stand at 4° C. for one hour. Thereafter, the SIRPA-CD47 binding inhibitory activity was evaluated in the same manner as in 1)-6-3.

SIRPA_V1_IgV = target: T8, SIRPA_V1_IgV (human, UniProt P78324 31-149); assay: SPR Biacore T200, antibody captured on anti-human IgG (Fc), SIRPA_V1_IgV as analyte (0.25 to 16 nM), 1:1 model
T8 construct: Secreted recombinant protein from FreeStyle 293F cells
Experimental: as §3

human SIRPA_V1 protein = target: T9, human SIRPA_V1 protein (human, UniProt P78324 31-504); assay: blocking cell-based ELISA: peroxidase-labeled CD47-Fc (1 µg/mL) on 293α cells expressing SIRPA_V1
T9 construct: Expressed on 293α cells from pcDNA3.2 V5-DEST or pFLAG V5-DEST (FLAG-tagged) vectors; also called human SIRPA Variant 1; hSIRPA V1
Experimental: as §4

human SIRPG = target: T10, human SIRPG (human, UniProt Q9P1W8 29-387); assay: flow cytometry on CHO-K1 cells expressing FLAG-tagged human SIRPG; PE anti-human IgG; MFI standardized to secondary antibody alone
T10 construct: whole, on cells; FLAG-tagged (pFLAG V5-DEST), on CHO-K1 cells; also called SIRPγ; signal regulatory protein γ
Experimental: SIRPβ1 (signal regulatory protein β1: the amino acid sequence thereof is published as RefSeq accession number NP_006056) and SIRPγ (signal regulatory protein γ: the amino acid sequence thereof is published as RefSeq accession number NP_061026) are molecules belonging to the SIRPA family. In the present invention, “SIRPα” may be referred to as “SIRPA,” “SIRPβ1” may be referred to as […] and “SIRPγ” may be referred to as “SIRPG.” CHO-K1 cells were prepared in a 10% FBS-containing Ham's F-12K medium at 3.3×10⁵ cells/mL and cultured overnight at 37° C. under a 5% CO₂ condition. pFLAG V5-DEST-human SIRPβ, pFLAG V5-DEST-human SIRPG, or pFLAG V5-DEST was introduced into the cells using Lipofectamine LTX (Invitrogen), and cells were cultured in a 10% FBS-containing Ham's F-12K medium at 37° C. under a 5% CO₂ condition for 24 hours. The obtained introduced cells were collected and seeded on a 96-well plate. After the culture supernatant was removed, 100 μL per well of various anti-human SIRPA antibodies or various control human IgG was added to each of various gene introduced cells at a final concentration of 0 to 10,000 ng/mL, and the mixture was allowed to stand at 4° C. for 25 minutes. After the mixture was centrifuged, the supernatant was removed, and cells were washed twice with 5% FBS-containing PBS. […]
as §2, with “For data analysis, FlowJo (TreeStar) was used.” left out

T7 sequence (P78324 other isoform, or with tags, fused parts or gaps limits assumed): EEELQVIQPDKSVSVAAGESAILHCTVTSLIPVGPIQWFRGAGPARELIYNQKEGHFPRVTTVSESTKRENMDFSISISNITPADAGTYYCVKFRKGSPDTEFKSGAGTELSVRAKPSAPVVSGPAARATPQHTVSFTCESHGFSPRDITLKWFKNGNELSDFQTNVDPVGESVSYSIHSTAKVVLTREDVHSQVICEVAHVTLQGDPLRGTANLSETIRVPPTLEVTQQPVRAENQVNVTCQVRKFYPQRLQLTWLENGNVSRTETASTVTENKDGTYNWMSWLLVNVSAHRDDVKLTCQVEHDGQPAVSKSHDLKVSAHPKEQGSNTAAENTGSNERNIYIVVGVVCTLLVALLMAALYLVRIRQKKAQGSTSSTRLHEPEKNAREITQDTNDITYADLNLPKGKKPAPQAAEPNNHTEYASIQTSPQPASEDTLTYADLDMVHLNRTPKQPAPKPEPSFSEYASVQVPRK
T8 sequence (P78324 other isoform, or with tags, fused parts or gaps limits assumed): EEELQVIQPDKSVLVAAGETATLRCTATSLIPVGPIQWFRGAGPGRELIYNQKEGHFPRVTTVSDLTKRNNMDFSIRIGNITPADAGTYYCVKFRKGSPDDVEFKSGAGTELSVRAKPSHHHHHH
T6 sequence (chain, as listed by the source limits assumed): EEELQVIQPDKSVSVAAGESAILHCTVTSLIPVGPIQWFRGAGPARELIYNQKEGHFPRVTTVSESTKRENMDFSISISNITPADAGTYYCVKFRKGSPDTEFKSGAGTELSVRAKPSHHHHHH
T9 sequence (P78324 31-504 limits assumed): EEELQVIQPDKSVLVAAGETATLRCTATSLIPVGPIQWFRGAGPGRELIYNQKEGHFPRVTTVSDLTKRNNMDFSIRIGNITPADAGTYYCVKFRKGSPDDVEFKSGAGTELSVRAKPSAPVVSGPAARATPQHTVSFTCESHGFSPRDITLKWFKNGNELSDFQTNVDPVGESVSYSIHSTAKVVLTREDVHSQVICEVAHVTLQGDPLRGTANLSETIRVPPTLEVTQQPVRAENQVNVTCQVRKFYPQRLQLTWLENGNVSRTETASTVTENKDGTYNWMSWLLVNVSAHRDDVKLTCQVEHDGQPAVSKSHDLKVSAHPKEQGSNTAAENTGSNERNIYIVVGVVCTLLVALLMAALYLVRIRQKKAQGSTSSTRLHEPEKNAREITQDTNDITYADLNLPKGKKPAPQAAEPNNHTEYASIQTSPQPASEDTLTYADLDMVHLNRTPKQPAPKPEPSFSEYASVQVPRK
T10 sequence (Q9P1W8 29-387): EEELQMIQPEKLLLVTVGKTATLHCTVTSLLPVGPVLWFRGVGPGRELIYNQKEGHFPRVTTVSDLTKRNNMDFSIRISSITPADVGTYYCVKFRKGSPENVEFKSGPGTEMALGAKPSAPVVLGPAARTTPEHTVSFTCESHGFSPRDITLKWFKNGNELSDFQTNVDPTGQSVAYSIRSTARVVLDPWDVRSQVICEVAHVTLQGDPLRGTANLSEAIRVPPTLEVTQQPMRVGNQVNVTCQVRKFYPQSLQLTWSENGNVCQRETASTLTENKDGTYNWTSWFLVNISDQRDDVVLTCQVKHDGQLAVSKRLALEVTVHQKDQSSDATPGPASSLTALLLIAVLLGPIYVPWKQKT
T5 sequence (O00241 30-398): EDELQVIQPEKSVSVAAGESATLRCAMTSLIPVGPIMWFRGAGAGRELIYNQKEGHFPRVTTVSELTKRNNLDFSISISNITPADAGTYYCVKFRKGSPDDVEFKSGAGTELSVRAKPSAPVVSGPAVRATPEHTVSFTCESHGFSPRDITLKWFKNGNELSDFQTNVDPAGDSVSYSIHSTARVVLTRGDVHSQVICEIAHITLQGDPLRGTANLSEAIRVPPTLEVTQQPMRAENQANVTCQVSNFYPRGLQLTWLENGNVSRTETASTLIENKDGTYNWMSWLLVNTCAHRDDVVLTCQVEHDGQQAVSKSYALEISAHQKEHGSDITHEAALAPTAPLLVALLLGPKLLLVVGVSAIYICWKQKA

Row | Binder | binding result (mouse SIRPA BALB/c) | binding result (mouse SIRPA_NOD) | binding result (mouse SIRPA_C57BL/6) | binding result (mouse SIRPA_129) | EC50 (read off the curve) (human SIRPB) | Kd (SIRPA_V2_IgV) | IC50 (human SIRPA_V2 protein) | Kd (SIRPA_V1_IgV) | IC50 (human SIRPA_V1 protein) | binding result (human SIRPG)
1 | B1 | no binding | no binding | no binding | no binding |  |  |  |  |  | 
2 | B2 |  |  |  |  | ~0.2 µg/mL | 6.32 nM | 2.12 µg/mL | 4.39 nM | 2.97 µg/mL | binds
